The target in test [1] is T1, human FcγRIIb extracellular domain with C-terminal His-tag (human, UniProt P31994 43-217).
T1 construct: extracellular domain; also called hFcγR IIb
T1 sequence (looked up): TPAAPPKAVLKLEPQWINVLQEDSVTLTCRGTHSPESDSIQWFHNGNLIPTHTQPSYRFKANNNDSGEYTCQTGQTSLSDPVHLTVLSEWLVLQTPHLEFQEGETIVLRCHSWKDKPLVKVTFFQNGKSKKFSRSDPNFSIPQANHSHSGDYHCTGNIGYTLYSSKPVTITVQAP
Briefly: SPR; FcγRIIb bound amount per unit captured Ab. (Surface plasmon resonance follows binding to a sensor surface in real time, without labels.)

Test [2] addresses T2, human FcγRIa extracellular domain with C-terminal His-tag (human, UniProt P12314 16-292).
T2 construct: extracellular domain; also called hFcγR Ia; hFcγRIa
As to the kind of experiment: SPR Biacore T200, Ab captured via Fab-kappa, pH 7.4, 25C.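 Also: each FcγR flowed as analyte over the captured antibodies, KD derived by 1:1 Langmuir or steady-state affinity fitting depending on the receptor.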
Procedure: (§1) The interaction between the generated antibodies and human FcγRs was analyzed using Biacore T200. 50 mM Na-Phosphate, 150 mM NaCl, 0.05% Tween20 (pH 7.4) was used as the running buffer, and the assay was performed at 25° C. For the sensor chip, Series S SA (GE Healthcare) chips onto which CaptureSelect Human Fab-kappa Kinetics Biotin Conjugate (Thermo Fisher Scientific) was immobilized were used. The antibodies of interest were captured onto these chips and each FcγR diluted in the running buffer was allowed to interact with them. Chips were regenerated with 10 mM Glycine-HCl (pH 1.5) and 25 mM NaOH, and assay was performed by repeatedly capturing antibodies. The dissociation constants KD (mol/L) for FcγRs of each antibody were calculated using Biacore T200 Evaluation Software 2.0, and using the 1:1 Langmuir binding model for FcγRIa and FcγRIIIa and the steady state affinity model for FcγRIIa. For FcγRIIb, the binding amount of FcγRIIb per unit amount of antibody was calculated by correcting the binding amount of FcγRIIb obtained from the sensorgram obtained by the measurement with the amount of antibody captured onto the chip surface.

For test [3], the target named is T3, human FcγRIIa R allotype extracellular domain with C-terminal His-tag (human, UniProt P12318 34-217).
T3 construct: extracellular domain; also called hFcγR IIa R
T3 sequence (looked up): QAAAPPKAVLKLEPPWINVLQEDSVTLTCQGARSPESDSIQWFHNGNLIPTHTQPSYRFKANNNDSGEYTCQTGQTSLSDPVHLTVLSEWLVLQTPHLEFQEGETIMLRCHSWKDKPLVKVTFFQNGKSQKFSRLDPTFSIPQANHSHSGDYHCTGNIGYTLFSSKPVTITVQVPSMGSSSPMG
The test is described as above.
Procedure: as §1

Test [4] concerns the target T4, human FcγRIIa H allotype extracellular domain with C-terminal His-tag (human, UniProt P12318 34-217).
T4 construct: extracellular domain; also called hFcγR IIa H
T4 sequence (looked up): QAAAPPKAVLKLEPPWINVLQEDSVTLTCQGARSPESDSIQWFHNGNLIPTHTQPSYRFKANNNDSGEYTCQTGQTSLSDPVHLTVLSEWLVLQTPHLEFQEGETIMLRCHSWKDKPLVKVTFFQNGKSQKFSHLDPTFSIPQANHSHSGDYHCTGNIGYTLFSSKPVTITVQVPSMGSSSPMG
The description is as above.
Procedure: as §1

The target in test [5] is T5, human FcγRIIIa F allotype extracellular domain with C-terminal His-tag (human, UniProt P08637 17-208).
T5 construct: extracellular domain; also called hFcγR IIIa F
The test is described as above.
Procedure: as §1

In test [6] the target is T6, human FcγRIIIa V allotype extracellular domain with C-terminal His-tag (human, UniProt P08637 17-208).
T6 construct: extracellular domain; also called hFcγR IIIa V
The test is described as above.
Procedure: as §1

Test [7] deals with T7, human FcRn (human, UniProt P55899 24-290; P61769 21-119).
T7 construct: Prepared by the method of WO 2010/107110; also called hFcRn
As to the kind of experiment: SPR; KD of 04H1389-G1m/04L1615-k0MT divided by KD of variant.

In test [8] the target is T2, human FcγRIa extracellular domain with …. The description is as above.
Test [9] deals with T3, human FcγRIIa R allotype extracellular …. Described as above.
Test [10] has as its target T4, human FcγRIIa H allotype extracellular …. The description is as above.
In test [11] the target is T6, human FcγRIIIa V allotype extracellular …. The test is described as above.
The target of test [12] is T1, human FcγRIIb extracellular domain with …. Briefly: SPR; binding amount divided by that of 04H1389-G1m/04L1615-k0MT.
Test [13] has as its target T7, human FcRn. Briefly: SPR Biacore T200, Ab captured via Fab-kappa, pH 6.0, steady state.

T6 sequence (P08637 17-208 F176V): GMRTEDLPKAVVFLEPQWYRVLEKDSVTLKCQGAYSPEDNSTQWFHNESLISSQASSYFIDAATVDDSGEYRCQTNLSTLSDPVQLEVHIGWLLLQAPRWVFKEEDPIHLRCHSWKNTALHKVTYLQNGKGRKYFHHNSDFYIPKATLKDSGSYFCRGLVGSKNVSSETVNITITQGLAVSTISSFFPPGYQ
T7 sequence (P55899 24-290 limits assumed, chain 1 of 2): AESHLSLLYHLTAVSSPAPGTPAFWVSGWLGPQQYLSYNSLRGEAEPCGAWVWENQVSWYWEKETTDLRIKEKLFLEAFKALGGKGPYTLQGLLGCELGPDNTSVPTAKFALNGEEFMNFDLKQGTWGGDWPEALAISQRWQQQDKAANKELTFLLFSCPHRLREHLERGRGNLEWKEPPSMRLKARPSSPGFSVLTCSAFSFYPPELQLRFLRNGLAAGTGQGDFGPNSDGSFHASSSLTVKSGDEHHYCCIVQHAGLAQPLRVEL
T7 sequence (P61769 21-119 limits assumed, chain 2 of 2): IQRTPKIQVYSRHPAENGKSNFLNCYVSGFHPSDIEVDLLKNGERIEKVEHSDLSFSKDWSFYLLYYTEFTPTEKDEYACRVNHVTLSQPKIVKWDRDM
T2 sequence (P12314 16-292): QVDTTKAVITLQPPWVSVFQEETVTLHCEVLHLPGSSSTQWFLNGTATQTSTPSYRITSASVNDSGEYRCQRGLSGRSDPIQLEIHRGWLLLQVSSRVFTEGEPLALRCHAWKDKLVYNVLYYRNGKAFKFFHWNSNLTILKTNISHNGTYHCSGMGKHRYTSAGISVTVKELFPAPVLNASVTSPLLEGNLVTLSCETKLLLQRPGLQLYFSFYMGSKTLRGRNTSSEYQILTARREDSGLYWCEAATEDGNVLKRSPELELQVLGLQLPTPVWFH
T5 sequence (P08637 17-208): as the sequence (P08637 17-208 F176V) above, with V160F counted along it

B1: 04H1389-Km473/04L1615-k0MT//04H1389-Hm482/04L1615-k0MT (antibody)
heavy 1: EVQLVESGGGLVKPGGSLRLSCAASGFTFSSKTMNWVRQAPGKGLEWVSSISTQSHYIYYAESVKGRFTISRDNAKNSLYLQMNSLRAEDTAVYYCARYGKREDMLWVFDYWGQGTLVTVSSASTKGPSVFPLAPSSKSTSGGTAALGCLVKDYFPEPVTVSWNSGALTSGVHTFPAVLQSSGLYSLSSVVTVPSSSLGTQTYICNVNHKPSNTKVDKRVEPKSCDKTHTCPPCPAPEFQWGPMVFLFPPKPKDVLMISRTPEVTCVVVDVSDEEPEVKFNWYVDGVEVHNAKTKPREEQYNATYRVVSVLPVLHQDWLNGKEYKCKVSNDALPAPIEKTISKAKGQPREPQVCTLPPSREEMTKNQVSLWCLVKGFYPSDIAVEWESNGQPENNYKTTPPVLDSDGSFFLYSKLTVDKSRWQQGNVFSCSVMHEALHAHTTRKELSLSP
heavy 2: EVQLVESGGGLVKPGGSLRLSCAASGFTFSSKTMNWVRQAPGKGLEWVSSISTQSHYIYYAESVKGRFTISRDNAKNSLYLQMNSLRAEDTAVYYCARYGKREDMLWVFDYWGQGTLVTVSSASTKGPSVFPLAPSSKSTSGGTAALGCLVKDYFPEPVTVSWNSGALTSGVHTFPAVLQSSGLYSLSSVVTVPSSSLGTQTYICNVNHKPSNTKVDKRVEPKSCDKTHTCPPCPAPELLAGPSVFLFPPKPKDVLMISRTPEVTCVVVDVSHEEPEVKFNWYVDGVEVHNAKTKPREEQYNATYRVVSVLPVLHQDWLNGKEYKCKVSNDALPKPDEETISKAKGQPREPQVYTLPPSRCEMTKNQVSLSCAVKGFYPSDIAVEWESNGQPENNYKTTPPVLDSDGSFFLVSKLTVDKSRWQQGNVFSCSVMHEALHAHTTRKELSLSP
light: DIVMTQSPLSLPVTPGEPASISCQGPSTGVGDYNYVHWYQQKPGQAPRLLIYFTSKKPSGVPDRFSGSGSGTDFTLKISRVEAEDVGVYYCQTYAAPLGPMFGQGTKLEIKRTVAAPSVFIFPPSDEQLKSGTASVVCLLNNFYPREAKVQWKVDNALQSGNSQESVTEQDSKDSTYSLSSTLTLSKADYEKHKVYACEVTHQGLSSPVTKSFNRGEC
notes: Heterodimerized antibody with N434A/Y436T/Q438R/S440E
By Kd is commonly meant a measure of binding affinity in units of concentration. As for B1, in test [1], the Binding amount was found to be 0.024. Also, the Kd in test [2] was 0.062 nM; in test [3], 180 nM; in test [4], 87 nM; in test [5] it was 2.6 nM; in test [6], 1.3 nM; in test [13], 460 nM. Besides, the “Relative value to KD between G1m and hFcRn” value in test [7] was determined as 2.8. Also, the “Relative value to KD between G1m and hFcγRs” value came out at 0.7 in test [8], 8.2 in test [9], 12.3 in test [10] and 705 in test [11]. The Relative binding amount in test [12] worked out at 2.1.

B2: 04H1389-Km461/04L1615-k0MT//04H1389-Hm443/04L1615-k0MT (antibody, human IgG1, kappa)
heavy 1: EVQLVESGGGLVKPGGSLRLSCAASGFTFSSKTMNWVRQAPGKGLEWVSSISTQSHYIYYAESVKGRFTISRDNAKNSLYLQMNSLRAEDTAVYYCARYGKREDMLWVFDYWGQGTLVTVSSASTKGPSVFPLAPSSKSTSGGTAALGCLVKDYFPEPVTVSWNSGALTSGVHTFPAVLQSSGLYSLSSVVTVPSSSLGTQTYICNVNHKPSNTKVDKRVEPKSCDKTHTCPPCPAPEFQWGPMVFLFPPKPKDVLMISRTPEVTCVVVDVSDEEPEVKFNWYVDGVEVHNAKTKPREEQYNATYRVVSVLPVLHQDWLNGKEYKCKVSNDALPAPEEKTISKAKGQPREPQVCTLPPSREEMTKNQVSLWCLVKGFYPSDIAVEWESNGQPENNYKTTPPVLDSDGSFFLYSKLTVDKSRWQQGNVFSCSVMHEALHNHYTQKSLSLSP
heavy 2: EVQLVESGGGLVKPGGSLRLSCAASGFTFSSKTMNWVRQAPGKGLEWVSSISTQSHYIYYAESVKGRFTISRDNAKNSLYLQMNSLRAEDTAVYYCARYGKREDMLWVFDYWGQGTLVTVSSASTKGPSVFPLAPSSKSTSGGTAALGCLVKDYFPEPVTVSWNSGALTSGVHTFPAVLQSSGLYSLSSVVTVPSSSLGTQTYICNVNHKPSNTKVDKRVEPKSCDKTHTCPPCPAPELLAGPSVFLFPPKPKDVLMISRTPEVTCVVVDVSHEEPEVKFNWYVDGVEVHNAKTKPREEQYNATYRVVSVLPVLHQDWLNGKEYKCKVSNDALPAPEEETISKAKGQPREPQVYTLPPSRCEMTKNQVSLSCAVKGFYPSDIAVEWESNGQPENNYKTTPPVLDSDGSFFLVSKLTVDKSRWQQGNVFSCSVMHEALHNHYTQKSLSLSP
light: DIVMTQSPLSLPVTPGEPASISCQGPSTGVGDYNYVHWYQQKPGQAPRLLIYFTSKKPSGVPDRFSGSGSGTDFTLKISRVEAEDVGVYYCQTYAAPLGPMFGQGTKLEIKRTVAAPSVFIFPPSDEQLKSGTASVVCLLNNFYPREAKVQWKVDNALQSGNSQESVTEQDSKDSTYSLSSTLTLSKADYEKHKVYACEVTHQGLSSPVTKSFNRGEC
notes: Heterodimerized antibody
For B2, the Binding amount in test [1] was 0.024. The Kd in [2] was 0.025 nM; in test [3], 260 nM; in test [4], 190 nM; in test [5], 1.2 nM; in test [6], 0.56 nM; in [13], 1700 nM. In test [7], the “Relative value to KD between G1m and hFcRn” value came to 0.7. Also, the “Relative value to KD between G1m and hFcγRs” value amounted to 1.8 in test [8], 5.8 in test [9], 5.7 in test [10] and 1620 in test [11]. This molecule gave a Relative binding amount in test [12] of 2.1.

B3: 04H1389-Km462/04L1615-k0MT//04H1389-Hm445/04L1615-k0MT (antibody, human IgG1, kappa)
heavy 1: EVQLVESGGGLVKPGGSLRLSCAASGFTFSSKTMNWVRQAPGKGLEWVSSISTQSHYIYYAESVKGRFTISRDNAKNSLYLQMNSLRAEDTAVYYCARYGKREDMLWVFDYWGQGTLVTVSSASTKGPSVFPLAPSSKSTSGGTAALGCLVKDYFPEPVTVSWNSGALTSGVHTFPAVLQSSGLYSLSSVVTVPSSSLGTQTYICNVNHKPSNTKVDKRVEPKSCDKTHTCPPCPAPEFQWGPMVFLFPPKPKDVLMISRTPEVTCVVVDVSDEEPEVKFNWYVDGVEVHNAKTKPREEQYNATYRVVSVLPVLHQDWLNGKEYKCKVSNDALPAPIEKTISKAKGQPREPQVCTLPPSREEMTKNQVSLWCLVKGFYPSDIAVEWESNGQPENNYKTTPPVLDSDGSFFLYSKLTVDKSRWQQGNVFSCSVMHEALHNHYTQKSLSLSP
heavy 2: EVQLVESGGGLVKPGGSLRLSCAASGFTFSSKTMNWVRQAPGKGLEWVSSISTQSHYIYYAESVKGRFTISRDNAKNSLYLQMNSLRAEDTAVYYCARYGKREDMLWVFDYWGQGTLVTVSSASTKGPSVFPLAPSSKSTSGGTAALGCLVKDYFPEPVTVSWNSGALTSGVHTFPAVLQSSGLYSLSSVVTVPSSSLGTQTYICNVNHKPSNTKVDKRVEPKSCDKTHTCPPCPAPELLAGPSVFLFPPKPKDVLMISRTPEVTCVVVDVSHEEPEVKFNWYVDGVEVHNAKTKPREEQYNATYRVVSVLPVLHQDWLNGKEYKCKVSNDALPKPDEETISKAKGQPREPQVYTLPPSRCEMTKNQVSLSCAVKGFYPSDIAVEWESNGQPENNYKTTPPVLDSDGSFFLVSKLTVDKSRWQQGNVFSCSVMHEALHNHYTQKSLSLSP
light: DIVMTQSPLSLPVTPGEPASISCQGPSTGVGDYNYVHWYQQKPGQAPRLLIYFTSKKPSGVPDRFSGSGSGTDFTLKISRVEAEDVGVYYCQTYAAPLGPMFGQGTKLEIKRTVAAPSVFIFPPSDEQLKSGTASVVCLLNNFYPREAKVQWKVDNALQSGNSQESVTEQDSKDSTYSLSSTLTLSKADYEKHKVYACEVTHQGLSSPVTKSFNRGEC
notes: Heterodimerized antibody
The molecule B3 had a Binding amount in [1] of 0.029. For the same molecule, the Kd in test [2] is 0.048 nM; in [3], 160 nM; in test [4], 74 nM; in test [5], 2.2 nM; in test [6], 1.1 nM; in [13], 1700 nM. Besides, the “Relative value to KD between G1m and hFcRn” value in test [7] amounted to 0.8. Also, the “Relative value to KD between G1m and hFcγRs” value in [8] was 0.9; in [9] it was 9.5; in test [10] it was 14.4; in test [11], 811. In test [12], this molecule registered a Relative binding amount of 2.6.

These data come from patent publication US20260022175A1 (Chugai, published 2026).
